These are literature values, as cited in US20050261189A1, “Methods of promoting cardiac cell proliferation” (Hydra Biosciences, Inc., priority 2004, published 2005).

B1: Wnt11: Wnt polypeptide (protein, UniProt O96014 25-354, looked up)
Protein Wnt-11: IKWLALSKTPSALALNQTQHCKQLEGLVSAQVQLCRSNLELMHTVVHAAREVMKACRRAFADMRWNCSSIELAPNYLLDLERGTRESAFVYALSAAAISHAIARACTSGDLPGCSCGPVPGEPPGPGNRWGGCADNLSYGLLMGAKFSDAPMKVKKTGSQANKLMRLHNSEVGRQALRASLEMKCKCHGVSGSCSIRTCWKGLQELQDVAADLKTRYLSATKVVHRPMGTRKHLVPKDLDIRPVKDSELVYLQSSPDFCMKNEKVGSHGTQDRQCNKTSNGSDSCDLMCCGRGYNPYTDRVVERCHCKYHWCCYVTCRRCERTVERYVCK
B2: Wnt16: Wnt polypeptide (protein, UniProt Q9UBV4 30-365, looked up)
Protein Wnt-16: NWMWLGIASFGVPEKLGCANLPLNSRQKELCKRKPYLLPSIREGARLGIQECGSQFRHERWNCMITAAATTAPMGASPLFGYELSSGTKETAFIYAVMAAGLVHSVTRSCSAGNMTECSCDTTLQNGGSASEGWHWGGCSDDVQYGMWFSRKFLDFPIGNTTGKENKVLLAMNLHNNEAGRQAVAKLMSVDCRCHGVSGSCAVKTCWKTMSSFEKIGHLLKDKYENSIQISDKTKRKMRRREKDQRKIPIHKDDLLYVNKSPNYCVEDKKLGIPGTQGRECNRTSEGADGCNLLCCGRGYNTHVVRHVERCECKFIWCCYVRCRRCESMTDVHTCK
B3: Wnt8a: Wnt polypeptide (protein, UniProt Q9H1J5 25-351, looked up)
Protein Wnt-8a: VNNFLITGPKAYLTYTTSVALGAQSGIEECKFQFAWERWNCPENALQLSTHNRLRSATRETSFIHAISSAGVMYIITKNCSMGDFENCGCDGSNNGKTGGHGWIWGGCSDNVEFGERISKLFVDSLEKGKDARALMNLHNNRAGRLAVRATMKRTCKCHGISGSCSIQTCWLQLAEFREMGDYLKAKYDQALKIEMDKRQLRAGNSAEGHWVPAEAFLPSAEAELIFLEESPDYCTCNSSLGIYGTEGRECLQNSHNTSRWERRSCGRLCTECGLQVEERKTEVISSCNCKFQWCCTVKCDQCRHVVSKYYCARSPGSAQSLGKGSA
B4: Wnt8b: Wnt polypeptide (protein, UniProt Q93098 23-351, looked up)
Protein Wnt-8b: WSVNNFLMTGPKAYLIYSSSVAAGAQSGIEECKYQFAWDRWNCPERALQLSSHGGLRSANRETAFVHAISSAGVMYTLTRNCSLGDFDNCGCDDSRNGQLGGQGWLWGGCSDNVGFGEAISKQFVDALETGQDARAAMNLHNNEAGRKAVKGTMKRTCKCHGVSGSCTTQTCWLQLPEFREVGAHLKEKYHAALKVDLLQGAGNSAAGRGAIADTFRSISTRELVHLEDSPDYCLENKTLGLLGTEGRECLRRGRALGRWERRSCRRLCGDCGLAVEERRAETVSSCNCKFHWCCAVRCEQCRRRVTKYFCSRAERPRGGAAHKPGRKP
B5: Wnt7a: Wnt polypeptide (protein, UniProt O00755 32-349, looked up)
Protein Wnt-7a: LGASIICNKIPGLAPRQRAICQSRPDAIIVIGEGSQMGLDECQFQFRNGRWNCSALGERTVFGKELKVGSREAAFTYAIIAAGVAHAITAACTQGNLSDCGCDKEKQGQYHRDEGWKWGGCSADIRYGIGFAKVFVDAREIKQNARTLMNLHNNEAGRKILEENMKLECKCHGVSGSCTTKTCWTTLPQFRELGYVLKDKYNEAVHVEPVRASRNKRPTFLKIKKPLSYRKPMDTDLVYIEKSPNYCEEDPVTGSVGTQGRACNKTAPQASGCDLMCCGRGYNTHQYARVWQCNCKFHWCCYVKCNTCSERTEMYTCK
B6: Wnt2: Wnt polypeptide (protein, UniProt P09544 26-360, looked up)
Protein Wnt-2: SWWYMRATGGSSRVMCDNVPGLVSSQRQLCHRHPDVMRAISQGVAEWTAECQHQFRQHRWNCNTLDRDHSLFGRVLLRSSRESAFVYAISSAGVVFAITRACSQGEVKSCSCDPKKMGSAKDSKGIFDWGGCSDNIDYGIKFARAFVDAKERKGKDARALMNLHNNRAGRKAVKRFLKQECKCHGVSGSCTLRTCWLAMADFRKTGDYLWRKYNGAIQVVMNQDGTGFTVANERFKKPTKNDLVYFENSPDYCIRDREAGSLGTAGRVCNLTSRGMDSCEVMCCGRGYDTSHVTRMTKCGCKFHWCCAVRCQDCLEALDVHTCKAPKNADWTTAT
B7: Wnt1: Wnt polypeptide (protein, UniProt P04628 28-370, looked up)
Proto-oncogene Wnt-1: ANSSGRWWGIVNVASSTNLLTDSKSLQLVLEPSLQLLSRKQRRLIRQNPGILHSVSGGLQSAVRECKWQFRNRRWNCPTAPGPHLFGKIVNRGCRETAFIFAITSAGVTHSVARSCSEGSIESCTCDYRRRGPGGPDWHWGGCSDNIDFGRLFGREFVDSGEKGRDLRFLMNLHNNEAGRTTVFSEMRQECKCHGMSGSCTVRTCWMRLPTLRAVGDVLRDRFDGASRVLYGNRGSNRASRAELLRLEPEDPAHKPPSPHDLVYFEKSPNFCTYSGRLGTAGTAGRACNSSSPALDGCELLCCGRGHRTRTQRVTERCNCTFHWCCHVSCRNCTHTRVLHECL
B8: Wnt9b: Wnt polypeptide (protein, UniProt O14905 23-357, looked up)
Protein Wnt-9b: SYFGLTGREVLTPFPGLGTAAAPAQGGAHLKQCDLLKLSRRQKQLCRREPGLAETLRDAAHLGLLECQFQFRHERWNCSLEGRMGLLKRGFKETAFLYAVSSAALTHTLARACSAGRMERCTCDDSPGLESRQAWQWGVCGDNLKYSTKFLSNFLGSKRGNKDLRARADAHNTHVGIKAVKSGLRTTCKCHGVSGSCAVRTCWKQLSPFRETGQVLKLRYDSAVKVSSATNEALGRLELWAPARQGSLTKGLAPRSGDLVYMEDSPSFCRPSKYSPGTAGRVCSREASCSSLCCGRGYDTQSRLVAFSCHCQVQWCCYVECQQCVQEELVYTCKH
B9: Wnt3: Wnt polypeptide (protein, UniProt P56703 22-355, looked up)
Proto-oncogene Wnt-3: GYPIWWSLALGQQYTSLGSQPLLCGSIPGLVPKQLRFCRNYIEIMPSVAEGVKLGIQECQHQFRGRRWNCTTIDDSLAIFGPVLDKATRESAFVHAIASAGVAFAVTRSCAEGTSTICGCDSHHKGPPGEGWKWGGCSEDADFGVLVSREFADARENRPDARSAMNKHNNEAGRTTILDHMHLKCKCHGLSGSCEVKTCWWAQPDFRAIGDFLKDKYDSASEMVVEKHRESRGWVETLRAKYSLFKPPTERDLVYYENSPNFCEPNPETGSFGTRDRTCNVTSHGIDGCDLLCCGRGHNTRTEKRKEKCHCIFHWCCYVSCQECIRIYDVHTCK
B10: Wnt5b: Wnt polypeptide (protein, UniProt Q9H1J7 18-359, looked up)
Protein Wnt-5b: QLLTDANSWWSLALNPVQRPEMFIIGAQPVCSQLPGLSPGQRKLCQLYQEHMAYIGEGAKTGIKECQHQFRQRRWNCSTADNASVFGRVMQIGSRETAFTHAVSAAGVVNAISRACREGELSTCGCSRTARPKDLPRDWLWGGCGDNVEYGYRFAKEFVDAREREKNFAKGSEEQGRVLMNLQNNEAGRRAVYKMADVACKCHGVSGSCSLKTCWLQLAEFRKVGDRLKEKYDSAAAMRVTRKGRLELVNSRFTQPTPEDLVYVDPSPDYCLRNESTGSLGTQGRLCNKTSEGMDGCELMCCGRGYNQFKSVQVERCHCKFHWCCFVRCKKCTEIVDQYICK
B11: Wnt4: Wnt polypeptide (protein, UniProt P56705 23-351, looked up)
Protein Wnt-4: SNWLYLAKLSSVGSISEEETCEKLKGLIQRQVQMCKRNLEVMDSVRRGAQLAIEECQYQFRNRRWNCSTLDSLPVFGKVVTQGTREAAFVYAISSAGVAFAVTRACSSGELEKCGCDRTVHGVSPQGFQWSGCSDNIAYGVAFSQSFVDVRERSKGASSSRALMNLHNNEAGRKAILTHMRVECKCHGVSGSCEVKTCWRAVPPFRQVGHALKEKFDGATEVEPRRVGSSRALVPRNAQFKPHTDEDLVYLEPSPDFCEQDMRSGVLGTRGRTCNKTSKAIDGCELLCCGRGFHTAQVELAERCSCKFHWCCFVKCRQCQRLVELHTCR
B12: Wnt6: Wnt polypeptide (protein, UniProt Q9Y6F9 25-365, looked up)
Protein Wnt-6: LWWAVGSPLVMDPTSICRKARRLAGRQAELCQAEPEVVAELARGARLGVRECQFQFRFRRWNCSSHSKAFGRILQQDIRETAFVFAITAAGASHAVTQACSMGELLQCGCQAPRGRAPPRPSGLPGTPGPPGPAGSPEGSAAWEWGGCGDDVDFGDEKSRLFMDARHKRGRGDIRALVQLHNNEAGRLAVRSHTRTECKCHGLSGSCALRTCWQKLPPFREVGARLLERFHGASRVMGTNDGKALLPAVRTLKPPGRADLLYAADSPDFCAPNRRTGSPGTRGRACNSSAPDLSGCDLLCCGRGHRQESVQLEENCLCRFHWCCVVQCHRCRVRKELSLCL
B13: Wnt7b: Wnt polypeptide (protein, UniProt P56706 25-349, looked up)
Protein Wnt-7b: ALSSVVALGANIICNKIPGLAPRQRAICQSRPDAIIVIGEGAQMGINECQYQFRFGRWNCSALGEKTVFGQELRVGSREAAFTYAITAAGVAHAVTAACSQGNLSNCGCDREKQGYYNQAEGWKWGGCSADVRYGIDFSRRFVDAREIKKNARRLMNLHNNEAGRKVLEDRMQLECKCHGVSGSCTTKTCWTTLPKFREVGHLLKEKYNAAVQVEVVRASRLRQPTFLRIKQLRSYQKPMETDLVYIEKSPNYCEEDAATGSVGTQGRLCNRTSPGADGCDTMCCGRGYNTHQYTKVWQCNCKFHWCCFVKCNTCSERTEVFTCK
B14: Wnt9a: Wnt polypeptide (protein, UniProt O14904 30-365, looked up)
Protein Wnt-9a: YFGLTGSEPLTILPLTLEPEAAAQAHYKACDRLKLERKQRRMCRRDPGVAETLVEAVSMSALECQFQFRFERWNCTLEGRYRASLLKRGFKETAFLYAISSAGLTHALAKACSAGRMERCTCDEAPDLENREAWQWGGCGDNLKYSSKFVKEFLGRRSSKDLRARVDFHNNLVGVKVIKAGVETTCKCHGVSGSCTVRTCWRQLAPFHEVGKHLKHKYETALKVGSTTNEAAGEAGAISPPRGRASGAGGSDPLPRTPELVHLDDSPSFCLAGRFSPGTAGRRCHREKNCESICCGRGHNTQSRVVTRPCQCQVRWCCYVECRQCTQREEVYTCKG

The subject of this series is one or more non-cardiac cells types. As to conditions: cited from earlier work.
Turning to Wnt10b: Wnt polypeptide, the “Wnt signaling pathway shown in one or more non-cardiac cell types” value is “signal via the canonical pathway”. B1: the “Wnt signaling pathway shown in one or more non-cardiac cell types” value is “signal via the non-canonical signaling pathway”. Turning to B2, the “Wnt signaling pathway shown in one or more non-cardiac cell types” value is given as “signal via the canonical pathway”. Take B3: the “Wnt signaling pathway shown in one or more non-cardiac cell types” value is recorded as “signal via the canonical pathway”. For B4, the “Wnt signaling pathway shown in one or more non-cardiac cell types” value is recorded as “signal via the canonical pathway”.

Regarding B5, the “Wnt signaling pathway shown in one or more non-cardiac cell types” value was “signal via the canonical pathway”. For B6, the “Wnt signaling pathway shown in one or more non-cardiac cell types” value is on record as “signal via the canonical pathway”. As for B7, the “Wnt signaling pathway shown in one or more non-cardiac cell types” value is listed as “signal via the canonical pathway”. Regarding B8, the “Wnt signaling pathway shown in one or more non-cardiac cell types” value is reported as “signal via the canonical pathway”. B9: the “Wnt signaling pathway shown in one or more non-cardiac cell types” value is given as “signal via the canonical pathway”.

Consider B10, for which the “Wnt signaling pathway shown in one or more non-cardiac cell types” value is “signal via the non-canonical signaling pathway”.

Turning to B11, the “Wnt signaling pathway shown in one or more non-cardiac cell types” value is on record as “signal via the non-canonical signaling pathway”. For B12, the “Wnt signaling pathway shown in one or more non-cardiac cell types” value is “signal via the canonical pathway”.

Regarding B13, the “Wnt signaling pathway shown in one or more non-cardiac cell types” value was “signal via the non-canonical signaling pathway”. On to B14, for which the “Wnt signaling pathway shown in one or more non-cardiac cell types” value was “signal via the canonical pathway”.
